In patent publication US20090202574A1, “METHODS OF IMMUNE OR HAEMATOLOGICAL ENHANCEMENT, INHIBITING TUMOUR FORMATION OR GROWTH, AND TREATING OR PREVENTING CANCER” (priority 2004, published 2009):

Key:
[1] = test system: cultured EL-4 tumour cells; test: Apoptosis of cultured EL-4 tumour cells triggered by sera of fed mice; format: cell-based, C57BL/6 mice; settings: Example 17; sera after 6 weeks of 28 g per 2.4 Kg diet; vs spontaneous apoptosis; control-diet sera 80%
Description: Feeding of Fe-saturated lactoferrin releases anti-tumour factors into the systemic circulation. Fifteen 8 to 9 week-old female C57BL/6 mice were fed the control AIN-93 diet or a diet supplemented with 28 g of 100% Fe-saturated lactoferrin per 2.4 Kg of diet. Sera was collected from experimental and control mice after 6 weeks of feeding the latter diets and tested for their ability to trigger the apoptosis of cultured EL-4 tumour cells.
Sera collected from experimental and control mice was tested for its ability to trigger the apoptosis of cultured EL-4 tumour cells. EL-4 cells (2×10^3) in 80 μl of DMEM media were incubated for 24 h in the presence or absence of 100 μl of sera that had been concentrated to 20 μl. The cells were then washed, permeabilized with a solution containing 0.1% Triton X-100 and 0.1% sodium citrate, and incubated with 20 μl of TUNEL reagent (In Situ apoptosis detection kit from Boehringer Mannheim, Germany) for 60 min at 37° C., and examined by fluorescence microscopy. Total numbers of cells were counted by staining the cells with methylene blue. The number of apoptotic cells was counted in ten randomly selected fields (magnification of ×40). The apototic index (AI) was calculated as the number of apoptotic cells×100/total number of nucleated cells.

Nitrous oxide = test: Nitrite (Griess reaction) at tumour site and in intestine; format: in vivo, mice; settings: Example 14, P<0.001
Description: Cytokine levels in the supernatants of homogenates of the small intestine were determined using a “sandwich” ELISA kit (Endogen, Woburn, Mass.). They were detected within standard curve ranges of 15-375 pg/ml for IL-4, 0-2450 pg/ml for IL-5, 15-1000 pg/ml for TNF-α, 0-3000 pg/ml for IFN-γ, 37-3000 pg/ml for IL-10, 31.3-2000 pg/ml for IL-12, and 31.3-2000 pg/ml for IL-18, respectively. Quantification of nitrite, indicative of NO production, was carried out by the Griess reaction (Sigma, USA). The results are expressed as the mean nitrite concentration (μM)±SD.
The ability of oral iron-saturated lactoferrin to affect the expression of a panel of Th1 and Th2 cytokines was examined in non-tumour-bearing mice, and in tumour-bearing mice fed iron-saturated bovine lactoferrin or the control diet, and treated with either paclitaxel or doxorubicin or a combination of the two drugs.

[2] = Western blot detection of bovine lactoferrin in plasma, tumour and organs of fed mice; format: in vivo; settings: oral diet
Description: Groups of 5 tumour-bearing mice were fed either the control diet or an iron-saturated bovine lactoferrin diet and treated with paclitaxel or doxorubicin, as indicated. Mice were killed on days described in Example 6 and plasma collected. Referring to FIG. 6, plasma proteins (80 μg) were separated on a 10% polyacrylamide SDS-gel, transferred to a membrane, and blotted with an antibody against bovine lactoferrin (upper panel). The relative amounts of bovine lactoferrin in each lane were recorded by densitometry (lower panel). The order of the plasma samples shown in the histograph is the same for the Western blot. A 75 kDa band characteristic of lactoferrin was present in the plasma samples taken from all the different treatment groups fed bovine lactoferrin, whereas this same band was absent from the plasma of mice fed the control diet (FIG. 6).
Tumour homogenates and sections were screened to determine whether lactoferrin in the systemic circulation reached the tumour site. A group of 5 tumour-bearing mice were fed the control diet or an iron-saturated bovine lactoferrin diet, and treated with paclitaxel and doxorubicin. Mice were killed on days described in Example 6, and tissues from the tumour and small intestine were collected. Tumour and intestine homogenates (80 μg of protein) were separated on a 10% polyacrylamide SDS-gel, transferred to a membrane, and Western blotted with an antibody against bovine lactoferrin (upper panel of FIG. 7). The relative amounts of bovine lactoferrin in each lane were recorded by densitometry (lower panel of FIG. 7). The order of the plasma samples shown in the histograph is the same for the Western blot.
A group of 5 tumour-bearing mice were fed an iron-saturated bovine lactoferrin diet. Mice were killed on days described in Example 6, and tissues from multiple organs, including different regions of the intestine, were collected. Organ homogenates (80 μg of protein) were separated on a 10% polyacrylamide SDS-gel, transferred to a membrane, and blotted with either an antibody against bovine lactoferrin (upper panel of FIG. 8A) or an anti-α-tubulin mAb (middle panel of FIG. 8A). Bovine lactoferrin (1 μg) was included as a standard. The relative amounts of bovine lactoferrin in each lane were recorded by densitometry (lower panel of FIG. 8A). The order of the plasma samples shown in the histograph is the same for the Western blot. […] Roughly equal amounts of bovine lactoferrin were retained by the proximal and distal regions of the small intestine, and the large intestine.

EL-4 tumours = test: EL-4 tumour growth in mice (s.c. flank tumour model); format: in vivo, C57BL/6 mice; settings: for inhibition of tumour growth: Example 1, oral diet, day 42
EL-4 target cells = test: Anti-tumour CTL and/or NK cell cytolytic activity of splenocytes against EL-4 target cells; settings: for increase in anti-tumour CTL and/or NK cell activity: Example 2, day 98; for increase in anti-tumour cytolytic activity: Example 18, EL-4, vs controls
Description: Splenocytes were harvested 28 days following tumour cell injection, as specified. They were incubated at 37° C. with EL-4 target cells in graded E:T ratios in 96-well round-bottom plates. After a 4-hour incubation, 50 μl of supernatant was collected, and lysis was measured using the Cyto Tox 96 Assay Kit (Promega, Madison, Wis., USA). Background controls for non-specific target and effector cell lysis were included. After background subtraction, percentage of cell lysis was calculated using the formula: 100× (experimental-spontaneous effector-spontaneous target/maximum target-spontaneous target).

B1: iron-saturated bovine lactoferrin: Iron-saturated bovine lactoferrin extract (100% saturated) prepared from natural bLf (protein)
chain: APRKNVRWCTISQPEWFKCRRWQWRMKKLGAPSITCVRRAFALECIRAIAEKKADAVTLDGGMVFEAGRDPYKLRPVAAEIYGTKESPQTHYYAVAVVKKGSNFQLDQLQGRKSCHTGLGRSAGWIIPMGILRPYLSWTESLEPLQGAVAKFFSASCVPCIDRQAYPNLCQLCKGEGENQCACSSREPYFGYSGAFKCLQDGAGDVAFVKETTVFENLPEKADRDQYELLCLNNSRAPVDAFKECHLAQVPSHAVVARSVDGKEDLIWKLLSKAQEKFGKNKSRSFQLFGSPPGQRDLLFKDSALGFLRIPSKVDSALYLGSRYLTTLKNLRETAEEVKARYTRVVWCAVGPEEQKKCQQWSQQSGQNVTCATASTTDDCIVLVLKGEADALNLDGGYIYTAGKCGLVPVLAENRKSSKHSSLDCVLRPTEGYLAVAVVKKANEGLTWNSLKDKKSCHTAVDRTAGWNIPMGLIVNQTGSCAFDEFFSQSCAPGADPKSRLCALCAGDDQGLDKCVPNSKEKYYGYTGAFRCLAEDVGDVAFVKNDTVWENTNGESTADWAKNLNREDFRLLCLDGTRKPVTEAQSCHLAVAPNHAVVSRSDRAAHVKQVLLHQQALFGKNGKNCPDKFCLFKSETKNLLFNDNTECLAKLGGRPTYEEYLGTEYVTAIANLKKCSTSPLLEACAFLTR
modifications: iron-saturated; Bovine Lactoferrin
notes: Iron-saturated bovine lactoferrin extract (100% saturated) prepared from natural bLf
For B1, the “increase in tumour cell apoptosis induced by sera” value [1] was 300%, the “increase in nitrous oxide” value (Nitrous oxide) was 3 to 4 fold and the “state of bovine lactoferrin in plasma” value ([2]; Example 9, Western blot) was “largely undegraded”. For the same molecule, the “75 kDa band characteristic of lactoferrin in plasma” value ([2]; Example 9, Western blot of plasma) was “present”, the “75 kDa band and partially degraded products in tumour and small intestine” value ([2]; Example 10, homogenates) was “present in homogenates of both the tumour and small intestine” and the “bovine lactoferrin of 75 kDa in organs” value ([2]; Example 11, organ homogenates) was “present in all regions of the intestine, and in the liver, but it was also present in lesser amounts in spleen, heart, lung, kidney, and brain”. For the same molecule, the “inhibition of tumour growth” value (EL-4 tumours; 2 of 5 mice, vs control diet, P>0.05) was 31%, the “inhibition of tumour growth” value (EL-4 tumours; the latter 3 mice (tumours first prevented for one week), P<0.05) was 51% and the “mice remaining completely tumour-free” value (EL-4 tumours; Example 2, of 24 mice, monitored 11 weeks) was “Four”. For the same molecule, the “mice that resisted the tumour challenge for 6 weeks” value (EL-4 tumours; Example 2, of 24 mice, tumours then grew at reduced rate) was “Five”, the “time for tumours to reach 0.4 cm in diameter” value (EL-4 tumours; Example 13, diet started at ~0.2 cm, control mice one week) was “two” and the “mice of ten that completely rejected the tumour challenge” value (EL-4 tumours; Example 15, 20 g of Lf per 2.4 Kg diet) was “one”. The “mice of ten that completely rejected the tumour challenge” value (EL-4 tumours; Example 16, 1 g Fe-Lf per 2.4 Kg diet) was “one”, the “tumour growth rate vs control diet” value (EL-4 tumours; Example 16, 5 and 25 g per 2.4 Kg diet) was “grew significantly (p<0.05 at days 35-49) more slowly” and the “mice of ten that completely rejected the tumour challenge” value (EL-4 tumours; Example 16, 5 g Fe-Lf per 2.4 Kg diet) was “two”. For the same molecule, the “mice of ten that completely rejected the tumour challenge” value (EL-4 tumours; Example 16, 25 g Fe-Lf per 2.4 Kg diet) was “three”, the “tumour growth rate vs control diet” value (EL-4 tumours; Example 16, lowest and highest doses (1 and 100 g per 2.4 Kg diet)) was “did not differ greatly” and the EL-4 tumour response (EL-4 tumours; Example 18, 28 g Fe-Lf per 2.4 Kg diet, drugs i.p. at ~0.4 to 0.5 cm) was “slowed the growth of all three tumour types, but failed to eradicate the tumours altogether”. The “anti-tumour CTL and/or NK cell activity of splenocytes” value (EL-4 target cells; Example 1, splenocytes at day 42, vs control diet) was “significantly (P<0.05) increased”, the “increase in anti-tumour CTL and/or NK cell activity” value (EL-4 target cells; mice that remained tumour-free, vs control diet, P<0.001) was 6 fold and the “increase in anti-tumour CTL and/or NK cell activity” value (EL-4 target cells; mice who developed tumours and were switched to control diet, vs control diet, P<0.001) was 30 fold. The “increase in anti-tumour cytolytic activity of splenocytes” value (EL-4 target cells; Example 15, the one mouse that resisted the tumour challenge, vs control, P<0.001) was 6 fold, the “increase in anti-tumour cytolytic activities of splenocytes” value (EL-4 target cells; Example 16, 6 of 30 mice that rejected the tumour on 1, 5 and 25 g diets, p<0.001) was 3 to 4.6 fold and the “increase in anti-tumour cytolytic activity” value (EL-4 target cells; FIG. 14B (epirubucin experiment)) was 130%. The “increase in anti-tumour cytolytic activity” value (EL-4 target cells; FIG. 14D (fluorouracil experiment)) was 87% and the “increase in anti-tumour cytolytic activity” value (EL-4 target cells; FIG. 14F (cyclophosphamide/methotrexate experiment)) was 100%.
